One assay deals with T1, human GIP receptor (human, UniProt P48546 22-466).
T1 sequence (looked up): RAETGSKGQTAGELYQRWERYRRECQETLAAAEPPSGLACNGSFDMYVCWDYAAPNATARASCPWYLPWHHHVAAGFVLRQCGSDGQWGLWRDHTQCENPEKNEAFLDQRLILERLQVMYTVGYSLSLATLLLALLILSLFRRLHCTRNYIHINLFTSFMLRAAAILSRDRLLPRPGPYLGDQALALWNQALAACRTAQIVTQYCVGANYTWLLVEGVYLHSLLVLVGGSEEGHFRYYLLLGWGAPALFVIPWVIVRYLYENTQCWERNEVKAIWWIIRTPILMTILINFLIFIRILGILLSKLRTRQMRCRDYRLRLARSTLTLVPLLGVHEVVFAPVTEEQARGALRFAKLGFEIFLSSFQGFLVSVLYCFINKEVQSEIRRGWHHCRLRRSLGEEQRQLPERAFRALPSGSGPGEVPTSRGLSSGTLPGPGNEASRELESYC
In words: cell-based or functional assay.

The target of the next assay is human GLP-1 receptor (human, UniProt P43220 24-463). In words: cell-based or functional assay.

Where a chain is given by its changes, count along the chain named. Numbered stars: 1 amine (or outer) side, 2 acyl side, 3 side chain; on linkers, the order of the positions; unused ones are H or OH. Square brackets hold non-standard residues; d marks the D form. Side chains are listed from the residue outwards. Ends that are not written are not given here. * marks the point of attachment. C20 diacid = O=C(O)CCCCCCCCCCCCCCCCCCC(=O)*; αMePhe(2-F) = C[C@](N)(Cc1ccccc1F)C(=O)O; γGlu = O=C(O)[C@H](CCC(=O)[*:2])N[*:1]; Desaminohistidyl = O=C(CCc1c[nH]cn1)*; αMeF = C[C@](N)(Cc1ccccc1)C(=O)O; AEEA = NCCOCCOCC(=O)O; Aib = CC(C)(N)C(=O)O

B1: Example 98 (peptide)
peptide: YXEGTXTSDYSILLDKKAQXAFIEYLIEGG
modifications: Aib2; αMeF6; K17((2-[2-(2-Amino-ethoxy)-ethoxy]-acetyl)2-(γ-Glu)-CO-(CH2)18-CO2H); Aib20; C-terminal NH2
For B1, in the assay with human GIP receptor, the “hGIPR cAMP EC50 ratio” value was determined as 2.43 and the “hGIPR cAMP Rel EC50” value is 0.0718 nM. For the same molecule, in the assay with human GLP-1 receptor, the “hGLP1R cAMP EC50 ratio” value is 0.384 and the “hGLP1R cAMP Rel EC50” value amounted to 0.157 nM.

B2: Example 101 (peptide)
peptide: Y[Aib]EGT[αMePhe(2-F)]TSDYSI[Aib]LDEK([AEEA-AEEA-γGlu-C20 diacid])AQ[Aib]AFIEYLIEGG-NH2
modifications: N-terminus assumed
SMILES: CC[C@H](C)[C@H](NC(=O)[C@H](CC(C)C)NC(=O)[C@H](Cc1ccc(O)cc1)NC(=O)[C@H](CCC(=O)O)NC(=O)[C@@H](NC(=O)[C@H](Cc1ccccc1)NC(=O)[C@H](C)NC(=O)C(C)(C)NC(=O)[C@H](CCC(N)=O)NC(=O)[C@H](C)NC(=O)[C@H](CCCCNC(=O)COCCOCCNC(=O)COCCOCCNC(=O)CC[C@H](NC(=O)CCCCCCCCCCCCCCCCCCC(=O)O)C(=O)O)NC(=O)[C@H](CCC(=O)O)NC(=O)[C@H](CC(=O)O)NC(=O)[C@H](CC(C)C)NC(=O)C(C)(C)NC(=O)[C@@H](NC(=O)[C@H](CO)NC(=O)[C@H](Cc1ccc(O)cc1)NC(=O)[C@H](CC(=O)O)NC(=O)[C@H](CO)NC(=O)[C@@H](NC(=O)[C@](C)(Cc1ccccc1F)NC(=O)[C@@H](NC(=O)CNC(=O)[C@H](CCC(=O)O)NC(=O)C(C)(C)NC(=O)[C@@H](N)Cc1ccc(O)cc1)[C@@H](C)O)[C@@H](C)O)[C@@H](C)CC)[C@@H](C)CC)C(=O)N[C@@H](CCC(=O)O)C(=O)NCC(=O)NCC(N)=O
Turning to B2, in the assay with human GIP receptor, the “hGIPR cAMP EC50 ratio” value was found to be 2.07 and the “hGIPR cAMP Rel EC50” value was 0.0704 nM. Also, in the assay with human GLP-1 receptor, the “hGLP1R cAMP EC50 ratio” value is 1.06 and the “hGLP1R cAMP Rel EC50” value came to 0.0579 nM.

B3: Example 93 (peptide)
peptide: Y[Aib]EGT[αMeF]TSDYSILK([AEEA-AEEA-γGlu-C20 diacid])DKIAQ[Aib]AFIEYLIEGG-NH2
modifications: N-terminus assumed
SMILES: CC[C@H](C)[C@H](NC(=O)[C@H](CCCCN)NC(=O)[C@H](CC(=O)O)NC(=O)[C@H](CCCCNC(=O)COCCOCCNC(=O)COCCOCCNC(=O)CC[C@H](NC(=O)CCCCCCCCCCCCCCCCCCC(=O)O)C(=O)O)NC(=O)[C@H](CC(C)C)NC(=O)[C@@H](NC(=O)[C@H](CO)NC(=O)[C@H](Cc1ccc(O)cc1)NC(=O)[C@H](CC(=O)O)NC(=O)[C@H](CO)NC(=O)[C@@H](NC(=O)[C@](C)(Cc1ccccc1)NC(=O)[C@@H](NC(=O)CNC(=O)[C@H](CCC(=O)O)NC(=O)C(C)(C)NC(=O)[C@@H](N)Cc1ccc(O)cc1)[C@@H](C)O)[C@@H](C)O)[C@@H](C)CC)C(=O)N[C@@H](C)C(=O)N[C@@H](CCC(N)=O)C(=O)NC(C)(C)C(=O)N[C@@H](C)C(=O)N[C@@H](Cc1ccccc1)C(=O)N[C@H](C(=O)N[C@@H](CCC(=O)O)C(=O)N[C@@H](Cc1ccc(O)cc1)C(=O)N[C@@H](CC(C)C)C(=O)N[C@H](C(=O)N[C@@H](CCC(=O)O)C(=O)NCC(=O)NCC(N)=O)[C@@H](C)CC)[C@@H](C)CC
B3: in the assay with human GIP receptor, the “hGIPR cAMP EC50 ratio” value came to 0.956 and the “hGIPR cAMP Rel EC50” value is 0.185 nM. Moreover, in the assay with human GLP-1 receptor, the “hGLP1R cAMP EC50 ratio” value was determined as 0.498 and the “hGLP1R cAMP Rel EC50” value is 0.115 nM.

B4: Example 95 (peptide)
peptide: B1 peptide with K17I, E28K
modifications: Aib2; αMeF6; Aib20; K28((2-[2-(2-Amino-ethoxy)-ethoxy]-acetyl)2-(γ-Glu)-CO-(CH2)18-CO2H); C-terminal NH2
Turning to B4, in the assay with human GIP receptor, the “hGIPR cAMP EC50 ratio” value is 0.145 and the “hGIPR cAMP Rel EC50” value came to 1.17 nM. Besides, in the assay with human GLP-1 receptor, the “hGLP1R cAMP EC50 ratio” value was found to be 0.0576 and the “hGLP1R cAMP Rel EC50” value was 1.01 nM.

B5: Example 6 (peptide)
peptide: Y[Aib]EGTFTSDYSILLDKK([AEEA-AEEA-γGlu-C20 diacid])AQ[Aib]AFIEYLLEGGPSSGAPPPS-NH2
modifications: N-terminus assumed
SMILES: CC[C@H](C)[C@H](NC(=O)[C@H](Cc1ccccc1)NC(=O)[C@H](C)NC(=O)C(C)(C)NC(=O)[C@H](CCC(N)=O)NC(=O)[C@H](C)NC(=O)[C@H](CCCCNC(=O)COCCOCCNC(=O)COCCOCCNC(=O)CC[C@H](NC(=O)CCCCCCCCCCCCCCCCCCC(=O)O)C(=O)O)NC(=O)[C@H](CCCCN)NC(=O)[C@H](CC(=O)O)NC(=O)[C@H](CC(C)C)NC(=O)[C@H](CC(C)C)NC(=O)[C@@H](NC(=O)[C@H](CO)NC(=O)[C@H](Cc1ccc(O)cc1)NC(=O)[C@H](CC(=O)O)NC(=O)[C@H](CO)NC(=O)[C@@H](NC(=O)[C@H](Cc1ccccc1)NC(=O)[C@@H](NC(=O)CNC(=O)[C@H](CCC(=O)O)NC(=O)C(C)(C)NC(=O)[C@@H](N)Cc1ccc(O)cc1)[C@@H](C)O)[C@@H](C)O)[C@@H](C)CC)C(=O)N[C@@H](CCC(=O)O)C(=O)N[C@@H](Cc1ccc(O)cc1)C(=O)N[C@@H](CC(C)C)C(=O)N[C@@H](CC(C)C)C(=O)N[C@@H](CCC(=O)O)C(=O)NCC(=O)NCC(=O)N1CCC[C@H]1C(=O)N[C@@H](CO)C(=O)N[C@@H](CO)C(=O)NCC(=O)N[C@@H](C)C(=O)N1CCC[C@H]1C(=O)N1CCC[C@H]1C(=O)N1CCC[C@H]1C(=O)N[C@@H](CO)C(N)=O
On to B5, for which, in the assay with human GIP receptor, the “hGIPR cAMP EC50 ratio” value was 2.09 and the “hGIPR cAMP Rel EC50” value was determined as 0.0899 nM. Further, in the assay with human GLP-1 receptor, the “hGLP1R cAMP EC50 ratio” value came out at 0.185 and the “hGLP1R cAMP Rel EC50” value worked out at 0.374 nM.

B6: Example 94 (peptide)
peptide: B1 peptide with K17I, A21K
modifications: Aib2; αMeF6; Aib20; K21((2-[2-(2-Amino-ethoxy)-ethoxy]-acetyl)2-(γ-Glu)-CO-(CH2)18-CO2H); C-terminal NH2
As for B6, in the assay with human GIP receptor, the “hGIPR cAMP EC50 ratio” value stood at 0.434 and the “hGIPR cAMP Rel EC50” value stood at 0.425 nM. Besides, in the assay with human GLP-1 receptor, the “hGLP1R cAMP EC50 ratio” value stood at 0.196 and the “hGLP1R cAMP Rel EC50” value was 0.338 nM.

With [Desaminohistidyl][Aib]EGTFTSDYSILLDKK([AEEA-AEEA-γGlu-C20 diacid])AQ[Aib]AFIEYLIEGGPSSGAPPPS-NH2 (also: ψ[NHCO] bond between DesHis1 and Aib2) [Example 105], in the assay with human GIP receptor, the “hGIPR cAMP EC50 ratio” value was determined as 0.101 and the “hGIPR cAMP Rel EC50” value came out at 1.85 nM. In the assay with human GLP-1 receptor, the “hGLP1R cAMP EC50 ratio” value was 1.51 and the “hGLP1R cAMP Rel EC50” value was found to be 0.0401 nM.

B7: Example 102 (peptide)
peptide: Y[Aib]EGT[αMeF]TSDYSI[Aib]LDEK([AEEA-AEEA-γGlu-C20 diacid])AQ[Aib]AFIEYLIEGG-NH2
modifications: N-terminus assumed
SMILES: CC[C@H](C)[C@H](NC(=O)[C@H](CC(C)C)NC(=O)[C@H](Cc1ccc(O)cc1)NC(=O)[C@H](CCC(=O)O)NC(=O)[C@@H](NC(=O)[C@H](Cc1ccccc1)NC(=O)[C@H](C)NC(=O)C(C)(C)NC(=O)[C@H](CCC(N)=O)NC(=O)[C@H](C)NC(=O)[C@H](CCCCNC(=O)COCCOCCNC(=O)COCCOCCNC(=O)CC[C@H](NC(=O)CCCCCCCCCCCCCCCCCCC(=O)O)C(=O)O)NC(=O)[C@H](CCC(=O)O)NC(=O)[C@H](CC(=O)O)NC(=O)[C@H](CC(C)C)NC(=O)C(C)(C)NC(=O)[C@@H](NC(=O)[C@H](CO)NC(=O)[C@H](Cc1ccc(O)cc1)NC(=O)[C@H](CC(=O)O)NC(=O)[C@H](CO)NC(=O)[C@@H](NC(=O)[C@](C)(Cc1ccccc1)NC(=O)[C@@H](NC(=O)CNC(=O)[C@H](CCC(=O)O)NC(=O)C(C)(C)NC(=O)[C@@H](N)Cc1ccc(O)cc1)[C@@H](C)O)[C@@H](C)O)[C@@H](C)CC)[C@@H](C)CC)C(=O)N[C@@H](CCC(=O)O)C(=O)NCC(=O)NCC(N)=O
Regarding B7, in the assay with human GIP receptor, the “hGIPR cAMP EC50 ratio” value was determined as 0.983 and the “hGIPR cAMP Rel EC50” value is 0.178 nM. In the assay with human GLP-1 receptor, the “hGLP1R cAMP EC50 ratio” value is 0.913 and the “hGLP1R cAMP Rel EC50” value stood at 0.0628 nM.

These data come from patent publication US20220048967A1 (published 2022).
